Measured values: patent publication US20150344570A1 (published 2015)

B1: GpH7-B3 variant S298_11K/GpL16-k0 (antibody, human IgG1, kappa)
heavy: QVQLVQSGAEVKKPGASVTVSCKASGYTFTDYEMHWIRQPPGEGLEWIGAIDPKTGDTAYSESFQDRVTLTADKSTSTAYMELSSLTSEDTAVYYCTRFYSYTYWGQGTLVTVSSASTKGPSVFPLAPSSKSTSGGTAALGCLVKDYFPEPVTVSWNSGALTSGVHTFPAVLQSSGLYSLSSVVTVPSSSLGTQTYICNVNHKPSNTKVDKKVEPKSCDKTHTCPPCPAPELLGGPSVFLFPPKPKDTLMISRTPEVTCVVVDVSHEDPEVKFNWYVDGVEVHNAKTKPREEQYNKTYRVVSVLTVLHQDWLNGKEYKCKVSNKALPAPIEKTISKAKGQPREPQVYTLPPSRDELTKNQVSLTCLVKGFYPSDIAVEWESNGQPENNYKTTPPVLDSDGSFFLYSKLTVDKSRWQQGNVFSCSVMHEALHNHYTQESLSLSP
light: DIVMTQSPLSLPVTPGEPASISCQASESLVHSNRNTYLHWYLQKPGQSPQLLIYKVSNRFSGVPDRFSGSGSGTDFTLKISRVEAEDVGVYYCSQNTHVPPTFGQGTKVEIERTVAAPSVFIFPPSDEQLKSGTASVVCLLNNFYPREAKVQWKVDNALQSGNSQESVTEQDSKDSTYSLSSTLTLSKADYEKHKVYACEVTHQGLSSPVTKSFNRGEC
notes: also called Ho Ab S298_11K
B2: GpH7-B3 variant S298_10E/GpL16-k0 (antibody, human IgG1, kappa)
heavy: not shown
light: B1 light
notes: also called Ho Ab S298_10E
B3: GpH7-B3 variant S239_09D/GpL16-k0 (antibody, human IgG1, kappa)
heavy: not shown
light: B1 light
notes: also called Ho Ab S239_09D; GpH7-B3-06-09D/GpL16-k0
B4: GpH7-B3 variant S239_19Q/GpL16-k0 (antibody, human IgG1, kappa)
heavy: not shown
light: B1 light
notes: also called Ho Ab S239_19Q
B5: GpH7-B3 variant Q295_03V/GpL16-k0 (antibody, human IgG1, kappa)
heavy: not shown
light: B1 light
notes: also called Ho Ab Q295_03V
B6: GpH7-B3 variant S298_06M/GpL16-k0 (antibody, human IgG1, kappa)
heavy: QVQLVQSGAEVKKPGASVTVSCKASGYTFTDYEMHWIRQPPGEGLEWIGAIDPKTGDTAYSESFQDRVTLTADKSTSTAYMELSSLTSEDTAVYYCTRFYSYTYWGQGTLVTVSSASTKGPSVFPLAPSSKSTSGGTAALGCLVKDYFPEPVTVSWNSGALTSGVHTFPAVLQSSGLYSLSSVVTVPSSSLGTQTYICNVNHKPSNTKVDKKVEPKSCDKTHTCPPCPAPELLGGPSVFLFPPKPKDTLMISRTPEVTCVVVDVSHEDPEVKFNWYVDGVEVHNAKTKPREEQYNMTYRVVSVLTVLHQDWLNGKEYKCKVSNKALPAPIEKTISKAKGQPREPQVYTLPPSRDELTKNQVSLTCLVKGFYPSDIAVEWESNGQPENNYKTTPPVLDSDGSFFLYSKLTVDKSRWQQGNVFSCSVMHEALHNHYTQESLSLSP
light: B1 light
notes: also called Ho Ab S298_06M
B7: GpH7-B3 variant P271_20W/GpL16-k0 (antibody, human IgG1, kappa)
heavy: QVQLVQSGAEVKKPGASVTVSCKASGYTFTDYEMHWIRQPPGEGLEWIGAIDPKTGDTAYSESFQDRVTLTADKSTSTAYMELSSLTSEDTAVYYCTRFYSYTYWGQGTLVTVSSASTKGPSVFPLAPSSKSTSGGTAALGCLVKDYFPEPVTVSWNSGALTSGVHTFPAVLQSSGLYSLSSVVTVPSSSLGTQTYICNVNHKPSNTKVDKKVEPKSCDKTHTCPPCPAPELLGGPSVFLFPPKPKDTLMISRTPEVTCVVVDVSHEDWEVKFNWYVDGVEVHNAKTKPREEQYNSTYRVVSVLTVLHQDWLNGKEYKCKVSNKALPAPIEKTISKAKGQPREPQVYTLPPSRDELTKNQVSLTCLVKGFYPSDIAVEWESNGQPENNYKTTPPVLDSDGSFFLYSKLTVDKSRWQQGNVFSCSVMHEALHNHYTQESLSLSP
light: B1 light
notes: also called Ho Ab P271_20W
B8: GpH7-B3 variant Q295_07I/GpL16-k0 (antibody, human IgG1, kappa)
heavy: not shown
light: B1 light
notes: also called Ho Ab Q295_07I
B9: GpH7-B3 variant Q295_18N/GpL16-k0 (antibody, human IgG1, kappa)
heavy: not shown
light: B1 light
notes: also called Ho Ab Q295_18N
B10: GpH7-B3 variant S239_14T/GpL16-k0 (antibody, human IgG1, kappa)
heavy: not shown
light: B1 light
notes: also called Ho Ab S239_14T
B11: GpH7-B3 variant S298_18N/GpL16-k0 (antibody, human IgG1, kappa)
heavy: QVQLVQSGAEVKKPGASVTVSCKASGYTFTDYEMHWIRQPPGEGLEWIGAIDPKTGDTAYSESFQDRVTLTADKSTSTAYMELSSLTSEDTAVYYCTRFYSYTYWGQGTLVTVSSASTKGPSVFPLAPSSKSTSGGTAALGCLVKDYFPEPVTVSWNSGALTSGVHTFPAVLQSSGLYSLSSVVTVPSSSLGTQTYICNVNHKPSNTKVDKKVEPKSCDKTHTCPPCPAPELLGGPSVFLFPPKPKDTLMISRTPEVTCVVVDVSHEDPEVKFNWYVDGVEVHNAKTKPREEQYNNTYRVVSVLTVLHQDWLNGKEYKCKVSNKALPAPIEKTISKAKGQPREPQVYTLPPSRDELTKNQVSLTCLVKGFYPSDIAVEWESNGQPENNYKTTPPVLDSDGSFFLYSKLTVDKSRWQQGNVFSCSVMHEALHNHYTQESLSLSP
light: B1 light
notes: also called Ho Ab S298_18N
B12: GpH7-B3 variant S298_19Q/GpL16-k0 (antibody, human IgG1, kappa)
heavy: not shown
light: B1 light
notes: also called Ho Ab S298_19Q
B13: GpH7-B3 variant S298_02A/GpL16-k0 (antibody, human IgG1, kappa)
heavy: not shown
light: B1 light
notes: also called Ho Ab S298_02A
B14: GpH7-B3 variant Q295_02A/GpL16-k0 (antibody, human IgG1, kappa)
heavy: not shown
light: B1 light
notes: also called Ho Ab Q295_02A
B15: GpH7-B3 variant P271_07I/GpL16-k0 (antibody, human IgG1, kappa)
heavy: not shown
light: B1 light
notes: also called Ho Ab P271_07I
B16: GpH7-B3 variant S267_16H/GpL16-k0 (antibody, human IgG1, kappa)
heavy: not shown
light: B1 light
notes: also called Ho Ab S267_16H
B17: GpH7-B3 variant S298_04F/GpL16-k0 (antibody, human IgG1, kappa)
heavy: not shown
light: B1 light
notes: also called Ho Ab S298_04F
B18: GpH7-B3 variant S267_09D/GpL16-k0 (antibody, human IgG1, kappa)
heavy: not shown
light: B1 light
notes: also called Ho Ab S267_09D
B19: GpH7-B3 variant S324_18N/GpL16-k0 (antibody, human IgG1, kappa)
heavy: not shown
light: B1 light
notes: also called Ho Ab S324_18N
B20: GpH7-B3 variant Q295_14T/GpL16-k0 (antibody, human IgG1, kappa)
heavy: not shown
light: B1 light
notes: also called Ho Ab Q295_14T
B21: GpH7-B3 variant Q295_08L/GpL16-k0 (antibody, human IgG1, kappa)
heavy: not shown
light: B1 light
notes: also called Ho Ab Q295_08L
B22: GpH7-B3 variant S324_19Q/GpL16-k0 (antibody, human IgG1, kappa)
heavy: not shown
light: B1 light
notes: also called Ho Ab S324_19Q
B23: GpH7-B3 variant S337_02A/GpL16-k0 (antibody, human IgG1, kappa)
heavy: not shown
light: B1 light
notes: also called Ho Ab S337_02A
B24: GpH7-B3 variant P271_06M/GpL16-k0 (antibody, human IgG1, kappa)
heavy: not shown
light: B1 light
notes: also called Ho Ab P271_06M
B25: GpH7-B3 variant Q295_13S/GpL16-k0 (antibody, human IgG1, kappa)
heavy: not shown
light: B1 light
notes: also called Ho Ab Q295_13S
B26: GpH7-B3 variant S298_03V/GpL16-k0 (antibody, human IgG1, kappa)
heavy: not shown
light: B1 light
notes: also called Ho Ab S298_03V
B27: GpH7-B3 variant S239_01G/GpL16-k0 (antibody, human IgG1, kappa)
heavy: not shown
light: B1 light
notes: also called Ho Ab S239_01G
B28: GpH7-B3 variant S324_02A/GpL16-k0 (antibody, human IgG1, kappa)
heavy: not shown
light: B1 light
notes: also called Ho Ab S324_02A
B29: GpH7-B3 variant S298_16H/GpL16-k0 (antibody, human IgG1, kappa)
heavy: not shown
light: B1 light
notes: also called Ho Ab S298_16H
B30: GpH7-B3 variant P271_11K/GpL16-k0 (antibody, human IgG1, kappa)
heavy: not shown
light: B1 light
notes: also called Ho Ab P271_11K
B31: GpH7-B3 variant S298_07I/GpL16-k0 (antibody, human IgG1, kappa)
heavy: not shown
light: B1 light
notes: also called Ho Ab S298_07I
B32: GpH7-B3 variant S267_01G/GpL16-k0 (antibody, human IgG1, kappa)
heavy: not shown
light: B1 light
notes: also called Ho Ab S267_01G
B33: GpH7-B3 variant S337_03V/GpL16-k0 (antibody, human IgG1, kappa)
heavy: not shown
light: B1 light
notes: also called Ho Ab S337_03V
B34: GpH7-B3 variant S324_08L/GpL16-k0 (antibody, human IgG1, kappa)
heavy: not shown
light: B1 light
notes: also called Ho Ab S324_08L
B35: GpH7-B3 variant S324_16H/GpL16-k0 (antibody, human IgG1, kappa)
heavy: not shown
light: B1 light
notes: also called Ho Ab S324_16H
B36: GpH7-B3 variant S267_03V/GpL16-k0 (antibody, human IgG1, kappa)
heavy: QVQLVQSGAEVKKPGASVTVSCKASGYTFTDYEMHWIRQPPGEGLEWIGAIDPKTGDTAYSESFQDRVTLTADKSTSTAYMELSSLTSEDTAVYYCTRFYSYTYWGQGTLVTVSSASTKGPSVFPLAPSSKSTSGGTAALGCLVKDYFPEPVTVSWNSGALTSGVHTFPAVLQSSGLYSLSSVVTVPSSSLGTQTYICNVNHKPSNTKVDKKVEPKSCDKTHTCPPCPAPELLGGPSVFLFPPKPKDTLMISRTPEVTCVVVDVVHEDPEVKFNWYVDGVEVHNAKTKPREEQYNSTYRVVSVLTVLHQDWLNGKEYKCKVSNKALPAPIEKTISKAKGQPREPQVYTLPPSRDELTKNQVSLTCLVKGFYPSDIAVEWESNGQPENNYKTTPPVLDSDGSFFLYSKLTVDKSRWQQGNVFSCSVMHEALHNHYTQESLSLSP
light: B1 light
notes: also called Ho Ab S267_03V
B37: GpH7-B3 variant S298_20W/GpL16-k0 (antibody, human IgG1, kappa)
heavy: not shown
light: B1 light
notes: also called Ho Ab S298_20W
B38: GpH7-B3 variant Q295_04F/GpL16-k0 (antibody, human IgG1, kappa)
heavy: not shown
light: B1 light
notes: also called Ho Ab Q295_04F
B39: GpH7-B3 variant S267_02A/GpL16-k0 (antibody, human IgG1, kappa)
heavy: not shown
light: B1 light
notes: also called Ho Ab S267_02A
B40: GpH7-B3 variant S337_01G/GpL16-k0 (antibody, human IgG1, kappa)
heavy: not shown
light: B1 light
notes: also called Ho Ab S337_01G
B41: GpH7-B3 variant S298_15Y/GpL16-k0 (antibody, human IgG1, kappa)
heavy: not shown
light: B1 light
notes: also called Ho Ab S298_15Y
B42: GpH7-B3 variant S324_12R/GpL16-k0 (antibody, human IgG1, kappa)
heavy: not shown
light: B1 light
notes: also called Ho Ab S324_12R
B43: GpH7-B3 variant P271_13S/GpL16-k0 (antibody, human IgG1, kappa)
heavy: not shown
light: B1 light
notes: also called Ho Ab P271_13S
B44: GpH7-B3 variant S239_18N/GpL16-k0 (antibody, human IgG1, kappa)
heavy: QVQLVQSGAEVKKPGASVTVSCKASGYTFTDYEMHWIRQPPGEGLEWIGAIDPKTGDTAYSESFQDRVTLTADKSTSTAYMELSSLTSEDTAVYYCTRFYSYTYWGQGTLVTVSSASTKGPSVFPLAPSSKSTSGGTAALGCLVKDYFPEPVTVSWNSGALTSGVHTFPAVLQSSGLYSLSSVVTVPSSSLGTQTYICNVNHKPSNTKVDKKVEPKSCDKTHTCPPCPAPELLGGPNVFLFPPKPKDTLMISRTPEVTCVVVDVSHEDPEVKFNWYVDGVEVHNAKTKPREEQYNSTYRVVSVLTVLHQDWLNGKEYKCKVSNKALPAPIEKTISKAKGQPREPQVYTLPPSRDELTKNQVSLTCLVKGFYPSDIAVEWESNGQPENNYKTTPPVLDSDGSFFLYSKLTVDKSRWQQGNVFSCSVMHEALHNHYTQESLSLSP
light: B1 light
notes: also called Ho Ab S239_18N
B45: GpH7-B3 variant S324_03V/GpL16-k0 (antibody, human IgG1, kappa)
heavy: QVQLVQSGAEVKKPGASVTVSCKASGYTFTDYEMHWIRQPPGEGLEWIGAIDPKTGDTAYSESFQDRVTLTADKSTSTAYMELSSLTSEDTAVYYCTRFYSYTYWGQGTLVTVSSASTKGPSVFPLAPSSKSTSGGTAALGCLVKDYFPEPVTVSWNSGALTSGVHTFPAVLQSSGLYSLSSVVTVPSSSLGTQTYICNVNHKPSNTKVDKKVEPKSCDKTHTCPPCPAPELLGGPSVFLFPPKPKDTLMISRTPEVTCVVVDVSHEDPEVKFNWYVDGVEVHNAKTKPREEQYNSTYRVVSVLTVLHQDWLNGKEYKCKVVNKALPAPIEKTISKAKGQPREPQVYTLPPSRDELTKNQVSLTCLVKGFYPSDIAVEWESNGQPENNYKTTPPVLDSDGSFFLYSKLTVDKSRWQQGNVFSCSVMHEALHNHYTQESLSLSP
light: B1 light
notes: also called Ho Ab S324_03V
B46: GpH7-B3 variant S298_14T/GpL16-k0 (antibody, human IgG1, kappa)
heavy: not shown
light: B1 light
notes: also called Ho Ab S298_14T
B47: GpH7-B3 variant S298_12R/GpL16-k0 (antibody, human IgG1, kappa)
heavy: not shown
light: B1 light
notes: also called Ho Ab S298_12R
B48: GpH7-B3 variant S298_01G/GpL16-k0 (antibody, human IgG1, kappa)
heavy: not shown
light: B1 light
notes: also called Ho Ab S298_01G
B49: GpH7-B3 variant P271_04F/GpL16-k0 (antibody, human IgG1, kappa)
heavy: not shown
light: B1 light
notes: also called Ho Ab P271_04F
B50: GpH7-B3 variant S298_08L/GpL16-k0 (antibody, human IgG1, kappa)
heavy: not shown
light: B1 light
notes: also called Ho Ab S298_08L
B51: GpH7-B3 variant S267_08L/GpL16-k0 (antibody, human IgG1, kappa)
heavy: not shown
light: B1 light
notes: also called Ho Ab S267_08L
B52: GpH7-B3 variant P271_12R/GpL16-k0 (antibody, human IgG1, kappa)
heavy: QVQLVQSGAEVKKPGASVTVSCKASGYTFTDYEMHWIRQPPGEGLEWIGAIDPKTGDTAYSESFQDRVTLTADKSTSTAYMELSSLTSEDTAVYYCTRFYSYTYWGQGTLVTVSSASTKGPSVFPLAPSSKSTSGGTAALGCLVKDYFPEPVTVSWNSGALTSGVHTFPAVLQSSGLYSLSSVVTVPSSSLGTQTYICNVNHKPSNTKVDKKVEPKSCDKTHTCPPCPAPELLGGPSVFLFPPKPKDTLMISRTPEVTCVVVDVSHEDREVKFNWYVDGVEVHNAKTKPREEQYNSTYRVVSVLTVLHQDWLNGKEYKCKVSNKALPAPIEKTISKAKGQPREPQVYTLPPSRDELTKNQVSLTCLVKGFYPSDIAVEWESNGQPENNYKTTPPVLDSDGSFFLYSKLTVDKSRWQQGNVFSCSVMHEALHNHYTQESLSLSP
light: B1 light
notes: also called Ho Ab P271_12R
B53: GpH7-B3 variant S324_20W/GpL16-k0 (antibody, human IgG1, kappa)
heavy: not shown
light: B1 light
notes: also called Ho Ab S324_20W
B54: GpH7-B3 variant S324_11K/GpL16-k0 (antibody, human IgG1, kappa)
heavy: not shown
light: B1 light
notes: also called Ho Ab S324_11K
B55: GpH7-B3 variant S324_14T/GpL16-k0 (antibody, human IgG1, kappa)
heavy: not shown
light: B1 light
notes: also called Ho Ab S324_14T
B56: GpH7-B3 variant S324_15Y/GpL16-k0 (antibody, human IgG1, kappa)
heavy: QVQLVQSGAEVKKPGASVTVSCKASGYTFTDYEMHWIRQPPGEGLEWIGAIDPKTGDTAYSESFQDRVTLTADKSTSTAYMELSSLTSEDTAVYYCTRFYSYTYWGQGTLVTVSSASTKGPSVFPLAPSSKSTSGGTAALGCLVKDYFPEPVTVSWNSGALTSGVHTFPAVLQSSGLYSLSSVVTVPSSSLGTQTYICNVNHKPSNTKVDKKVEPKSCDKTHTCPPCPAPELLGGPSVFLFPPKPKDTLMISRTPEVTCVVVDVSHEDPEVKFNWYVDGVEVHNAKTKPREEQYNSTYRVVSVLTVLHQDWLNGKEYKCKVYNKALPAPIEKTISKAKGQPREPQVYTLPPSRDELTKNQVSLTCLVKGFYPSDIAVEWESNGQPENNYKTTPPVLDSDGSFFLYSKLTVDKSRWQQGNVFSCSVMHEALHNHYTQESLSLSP
light: B1 light
notes: also called Ho Ab S324_15Y
B57: GpH7-B3 variant Q295_05P/GpL16-k0 (antibody, human IgG1, kappa)
heavy: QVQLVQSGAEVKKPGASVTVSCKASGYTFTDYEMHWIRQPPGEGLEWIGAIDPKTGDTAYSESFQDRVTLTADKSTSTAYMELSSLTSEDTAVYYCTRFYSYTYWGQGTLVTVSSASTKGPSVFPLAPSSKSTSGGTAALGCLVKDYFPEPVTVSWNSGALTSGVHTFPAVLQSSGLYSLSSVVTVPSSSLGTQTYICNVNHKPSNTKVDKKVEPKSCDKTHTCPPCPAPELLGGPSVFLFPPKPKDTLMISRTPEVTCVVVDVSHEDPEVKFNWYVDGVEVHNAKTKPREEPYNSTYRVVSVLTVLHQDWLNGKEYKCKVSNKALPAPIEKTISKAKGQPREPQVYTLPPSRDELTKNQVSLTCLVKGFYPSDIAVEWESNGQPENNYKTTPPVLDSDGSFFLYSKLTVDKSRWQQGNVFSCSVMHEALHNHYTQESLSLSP
light: B1 light
notes: also called Ho Ab Q295_05P

Target: T1, FcγRIa (human, UniProt P12314 16-292)
T1 construct: extracellular domain; Soluble extracellular domain expressed in FreeStyle293 cells, used as analyte in Biacore; also called FcgRI; 1a; not shown: His tag attached to the C terminus
Assay: SPR (Biacore); Ho Ab vs HoCon Ab GpH7-B3/GpL16-k0
Experimental: Analysis of interaction between objective antibody and the FcγR was carried out using Biacore T100 (GE Healthcare). HBS-EP+ (GE Healthcare) was used as the running buffer, and the measurement temperature was set to 25° C. Chips produced by immobilizing the antigen peptide by the amine coupling method to a Series S Sencor Chip CM5 (GE Healthcare), or alternatively, chips produced by allowing preliminarily biotinylated antigen peptides to interact with and immobilize onto a Series S Sensor Chip SA (certified) (GE Healthcare) were used. Antibodies of interest were captured onto an antigen peptide-immobilized chip, and allowed to interact to each FcγR diluted with running buffer. To regenerate and repeatedly use the chip, the antibodies captured on the chip were washed off by reacting 10 mM glycine-HCl, pH 1.5.

T1 sequence (P12314 16-292): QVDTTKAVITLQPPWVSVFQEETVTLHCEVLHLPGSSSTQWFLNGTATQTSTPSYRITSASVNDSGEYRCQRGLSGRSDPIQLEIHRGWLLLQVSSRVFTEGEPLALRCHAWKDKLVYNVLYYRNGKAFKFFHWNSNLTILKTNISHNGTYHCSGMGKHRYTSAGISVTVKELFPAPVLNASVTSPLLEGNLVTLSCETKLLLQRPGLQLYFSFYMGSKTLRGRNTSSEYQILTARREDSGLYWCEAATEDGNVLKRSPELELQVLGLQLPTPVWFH

| Binder | Ho/Con_1a |
| --- | --- |
| B1 | 90.4 relative binding, control = 100 |
| B2 | 106 relative binding, control = 100 |
| B3 | 101 relative binding, control = 100 |
| B4 | 93.4 relative binding, control = 100 |
| B5 | 102 relative binding, control = 100 |
| B6 | 106 relative binding, control = 100 |
| B7 | 102 relative binding, control = 100 |
| B8 | 101 relative binding, control = 100 |
| B9 | 101 relative binding, control = 100 |
| B10 | 101 relative binding, control = 100 |
| B11 | 104 relative binding, control = 100 |
| B12 | 105 relative binding, control = 100 |
| B13 | 106 relative binding, control = 100 |
| B14 | 104 relative binding, control = 100 |
| B15 | 102 relative binding, control = 100 |
| B16 | 98.2 relative binding, control = 100 |
| B17 | 107 relative binding, control = 100 |
| B18 | 106 relative binding, control = 100 |
| B19 | 111 relative binding, control = 100 |

| Binder | Ho/Con_1a |
| --- | --- |
| B20 | 102 relative binding, control = 100 |
| B21 | 103 relative binding, control = 100 |
| B22 | 111 relative binding, control = 100 |
| B23 | 103 relative binding, control = 100 |
| B24 | 102 relative binding, control = 100 |
| B25 | 101 relative binding, control = 100 |
| B26 | 106 relative binding, control = 100 |
| B27 | 101 relative binding, control = 100 |
| B28 | 103 relative binding, control = 100 |
| B29 | 107 relative binding, control = 100 |
| B30 | 101 relative binding, control = 100 |
| B31 | 103 relative binding, control = 100 |
| B32 | 102 relative binding, control = 100 |
| B33 | 105 relative binding, control = 100 |
| B34 | 103 relative binding, control = 100 |
| B35 | 111 relative binding, control = 100 |
| B36 | 102 relative binding, control = 100 |
| B37 | 71.5 relative binding, control = 100 |
| B38 | 100 relative binding, control = 100 |

| Binder | Ho/Con_1a |
| --- | --- |
| B39 | 108 relative binding, control = 100 |
| B40 | 102 relative binding, control = 100 |
| B41 | 103 relative binding, control = 100 |
| B42 | 101 relative binding, control = 100 |
| B43 | 101 relative binding, control = 100 |
| B44 | 97.9 relative binding, control = 100 |
| B45 | 103 relative binding, control = 100 |
| B46 | 106 relative binding, control = 100 |
| B47 | 94.5 relative binding, control = 100 |
| B48 | 103 relative binding, control = 100 |
| B49 | 100 relative binding, control = 100 |
| B50 | 104 relative binding, control = 100 |
| B51 | 99.9 relative binding, control = 100 |
| B52 | 101 relative binding, control = 100 |
| B53 | 112 relative binding, control = 100 |
| B54 | 100 relative binding, control = 100 |
| B55 | 112 relative binding, control = 100 |
| B56 | 112 relative binding, control = 100 |
| B57 | 101 relative binding, control = 100 |
